According to article PMC2756588:

Experiments:
Experiment in all cases: SPOT array
[1] = target: Rvs167, P39743; details: median of control spots 2707
[2] = target: T1, Sla1-2, P32790; details: median of control spots 712
T1 sequence (P32790 60-140, looked up): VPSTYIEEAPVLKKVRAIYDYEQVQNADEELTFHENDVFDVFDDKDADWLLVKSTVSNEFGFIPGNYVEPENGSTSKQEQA

[3] = target: T2, Lsb4, P32793; details: median of control spots 397
T2 sequence (P32793 402-468, looked up): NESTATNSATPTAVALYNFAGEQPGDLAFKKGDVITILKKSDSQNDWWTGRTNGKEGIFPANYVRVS

[4] = target: T3, Bbc1, P47068; details: median of control spots 796
T3 sequence (P47068 1-78, looked up): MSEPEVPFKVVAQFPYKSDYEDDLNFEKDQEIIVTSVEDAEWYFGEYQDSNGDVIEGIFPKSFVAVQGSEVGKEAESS

[5] = target: T4, Myo5, Q04439; details: median of control spots 471
T4 sequence (Q04439 1072-1160, looked up): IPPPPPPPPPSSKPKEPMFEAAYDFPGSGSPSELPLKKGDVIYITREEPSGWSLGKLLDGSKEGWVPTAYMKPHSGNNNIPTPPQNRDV

[6] = target: Myo3, P36006; details: median of control spots 468
[7] = target: T5, Nbp2, Q12163; details: median of control spots 357
T5 sequence (Q12163 103-180, looked up): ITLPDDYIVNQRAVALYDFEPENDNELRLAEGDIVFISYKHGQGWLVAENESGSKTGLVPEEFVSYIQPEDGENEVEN

[8] = target: T6, Cyk3, Q07533; details: median of control spots 1451
T6 sequence (Q07533 1-83, looked up): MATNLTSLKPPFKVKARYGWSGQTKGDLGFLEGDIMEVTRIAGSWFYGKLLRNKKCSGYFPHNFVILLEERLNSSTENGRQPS

[9] = target: T7, Lsb3, P43603; details: median of control spots 406
T7 sequence (P43603 385-451, looked up): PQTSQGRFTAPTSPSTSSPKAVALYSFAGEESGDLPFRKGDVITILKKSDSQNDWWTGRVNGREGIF

[10] = target: T8, Hse1, P38753; details: median of control spots 1727
T8 sequence (P38753 208-285, looked up): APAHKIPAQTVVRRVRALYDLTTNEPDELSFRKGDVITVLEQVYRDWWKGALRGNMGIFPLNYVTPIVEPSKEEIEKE

[11] = target: T9, Lsb1, P53281; details: median of control spots 388
T9 sequence (P53281 45-122, looked up): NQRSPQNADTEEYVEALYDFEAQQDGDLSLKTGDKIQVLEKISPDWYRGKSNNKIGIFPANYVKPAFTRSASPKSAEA

[12] = target: T10, Pin3, Q06449; details: median of control spots 2171
T10 sequence (Q06449 53-122, looked up): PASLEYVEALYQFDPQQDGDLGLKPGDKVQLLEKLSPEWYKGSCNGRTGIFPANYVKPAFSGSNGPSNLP

[13] = target: GST; details: median of control spots 978
[14] = target: T11, Bzz1-2, P38822; details: median of control spots 4538
T11 sequence (P38822 568-633, looked up): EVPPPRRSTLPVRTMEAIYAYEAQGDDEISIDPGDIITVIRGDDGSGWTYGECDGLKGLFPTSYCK

[15] = target: T12, Fus1, P11710; details: median of control spots 1200
T12 sequence (P11710 432-512, looked up): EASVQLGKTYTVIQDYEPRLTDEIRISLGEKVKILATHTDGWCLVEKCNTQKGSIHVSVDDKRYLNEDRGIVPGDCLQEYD

[16] = target: T13, Bud14, P27637; details: median of control spots 956
T13 sequence (P27637 247-328, looked up): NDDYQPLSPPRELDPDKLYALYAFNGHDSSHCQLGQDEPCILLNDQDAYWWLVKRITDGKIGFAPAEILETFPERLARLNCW

[17] = target: T14, Hof1, Q05080; details: median of control spots 4086
T14 sequence (Q05080 590-669, looked up): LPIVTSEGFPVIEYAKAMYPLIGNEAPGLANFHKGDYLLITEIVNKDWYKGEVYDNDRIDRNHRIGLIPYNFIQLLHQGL

[18] = target: T15, Boi2, P39969; details: median of control spots 1161
T15 sequence (P39969 32-116, looked up): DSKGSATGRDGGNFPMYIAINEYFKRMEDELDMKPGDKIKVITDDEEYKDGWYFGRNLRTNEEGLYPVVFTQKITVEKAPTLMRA

[19] = target: T16, Bzz1-1, P38822; details: median of control spots 4446
T16 sequence (P38822 478-572, looked up): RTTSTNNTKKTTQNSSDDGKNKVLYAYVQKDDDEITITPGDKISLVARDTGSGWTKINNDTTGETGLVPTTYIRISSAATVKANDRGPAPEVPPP

[20] = target: Bem1-1, P29366; details: median of control spots 4282
Bem1-1, P29366, sequence (P29366 55-141): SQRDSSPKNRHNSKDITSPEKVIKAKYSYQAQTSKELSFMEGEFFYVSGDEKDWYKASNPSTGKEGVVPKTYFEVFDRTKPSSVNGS

[21] = target: T17, Sla1-3, P32790; details: median of control spots 5475
T17 sequence (P32790 344-424, looked up): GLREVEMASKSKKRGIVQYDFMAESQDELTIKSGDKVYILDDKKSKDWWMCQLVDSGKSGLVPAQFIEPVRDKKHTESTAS

[22] = target: T18, Pex13, P80667; details: median of control spots 1341
T18 sequence (P80667 295-386, looked up): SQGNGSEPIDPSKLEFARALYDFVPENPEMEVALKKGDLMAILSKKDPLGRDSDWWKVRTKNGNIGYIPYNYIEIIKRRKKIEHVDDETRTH

[23] = target: T19, Abp1, P15891; details: median of control spots 935
T19 sequence (P15891 535-592, looked up): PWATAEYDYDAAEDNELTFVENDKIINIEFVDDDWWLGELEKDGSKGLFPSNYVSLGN

[24] = target: T20, Boi1, P38041; details: median of control spots 1162
T20 sequence (P38041 1-86, looked up): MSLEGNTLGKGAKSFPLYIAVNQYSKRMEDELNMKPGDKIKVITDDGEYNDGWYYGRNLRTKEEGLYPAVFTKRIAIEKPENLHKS

[25] = target: Bem1-2, P29366; details: median of control spots 4347
Bem1-2, P29366, sequence (P29366 139-227): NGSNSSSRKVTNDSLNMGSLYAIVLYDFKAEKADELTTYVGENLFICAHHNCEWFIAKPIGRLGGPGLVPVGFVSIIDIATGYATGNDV

[26] = target: T21, Cdc25, P04821; details: median of control spots 969
T21 sequence (P04821 50-136, looked up): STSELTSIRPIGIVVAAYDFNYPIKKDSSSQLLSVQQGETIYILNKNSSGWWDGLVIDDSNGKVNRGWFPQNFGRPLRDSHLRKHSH

[27] = target: Sho1, P40073; details: median of control spots 1148
Sho1, P40073, sequence (P40073 287-367): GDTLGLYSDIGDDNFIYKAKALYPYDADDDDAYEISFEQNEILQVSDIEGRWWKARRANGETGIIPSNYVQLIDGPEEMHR

Rvs167, P39743, sequence (P39743 419-482): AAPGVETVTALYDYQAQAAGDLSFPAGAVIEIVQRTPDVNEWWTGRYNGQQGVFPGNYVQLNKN

Binder | SPOT intensity [1] | SPOT intensity [2] | SPOT intensity [3] | SPOT intensity [4] | SPOT intensity [5] | SPOT intensity [6] | SPOT intensity [7] | SPOT intensity [8] | SPOT intensity [9] | SPOT intensity [10] | SPOT intensity [11] | SPOT intensity [12] | SPOT intensity [13] | SPOT intensity [14] | SPOT intensity [15] | SPOT intensity [16] | SPOT intensity [17] | SPOT intensity [18] | SPOT intensity [19] | SPOT intensity [20] | other results
VQPTAAPATPPRHIS | 12 | 0 | 251 | 2 | 0 | 0 | 0 | 0 | 251 | 0 | 45 | 0 | 0 | 0 | 13 | 0 | 0 | 0 | 0 | 2 | SPOT intensity [21]: 5; SPOT intensity [22]: 0; SPOT intensity [23]: 0; SPOT intensity [24]: 0; SPOT intensity [25]: 0; SPOT intensity [26]: 2; SPOT intensity [27]: 0
QQNRPLPQLPNRNNR | 1310 | 0 | 484 | 40 | 0 | 0 | 0 | 0 | 484 | 23 | 176 | 34 | 0 | 0 | 2 | 4 | 112 | 1 | 4 | 3 | SPOT intensity [21]: 10; SPOT intensity [22]: 589; SPOT intensity [23]: 228; SPOT intensity [24]: 1; SPOT intensity [25]: 1; SPOT intensity [26]: 2; SPOT intensity [27]: 1600
VATSTSPKLPPRGKQ | 4100 | 0 | 275 | 23 | 0 | 0 | 0 | 1 | 695 | 0 | 561 | 15 | 0 | 0 | 0 | 0 | 2 | 1 | 2 | 6 | SPOT intensity [21]: 13; SPOT intensity [22]: 87; SPOT intensity [23]: 23; SPOT intensity [24]: 0; SPOT intensity [25]: 0; SPOT intensity [26]: 0; SPOT intensity [27]: 1
NPLPKEPRLPKRKVA | 200 | 2 | 288 | 221 | 0 | 7 | 0 | 4 | 282 | 191 | 19 | 10 | 2 | 29 | 2 | 26 | 5 | 2 | 6 | 0 | SPOT intensity [21]: 45; SPOT intensity [22]: 16; SPOT intensity [23]: 131; SPOT intensity [24]: 4; SPOT intensity [25]: 1; SPOT intensity [26]: 22; SPOT intensity [27]: 107
